Measurements from patent US20140249091A1 (BIOUSIAN BIOSYSTEMS, published 2014).
Read-outs that look alike come from different tables or passages of the source. Non-standard residues stand in square brackets, D forms with d. *: point of attachment. βGlc = OC[C@H]1O[C@@H](*)[C@H](O)[C@@H](O)[C@@H]1O; Nle = CCCC[C@H](N)C(=O)O; Nva = CCC[C@H](N)C(=O)O

Assays:
human mu opioid receptor [1] = biological target: T1, human mu opioid receptor (human, UniProt P35372 1-400); experiment: cell-based or functional assay
T1 construct: whole, on cells; Assayed as CHO cell membranes; also called hMOR; MOR

[2] = biological target: T2, human delta opioid receptor (human, UniProt P41143 1-372); experiment: cell-based or functional assay
human mu opioid receptor [3] = biological target: T1, human mu opioid receptor; experiment: competition vs [3H]DAMGO, hMOR CHO cell membranes (summary table)
[4] = biological target: T2, human delta opioid receptor; experiment: radioligand competition; reference hMOR
human mu opioid receptor [5] = biological target: T1, human mu opioid receptor; experiment: competition vs 0.25 nM [3H]DAMGO, hMOR CHO cell membranes
[6] = biological target: T2, human delta opioid receptor; experiment: competition vs 0.2 nM [3H]naltrindole, hDOR CHO cell membranes
[7] = biological target: human kappa opioid receptor (human) (UniProt P41145); experiment: inhibition of [3H]U69,593 binding at 10 uM peptide, hKOR CHO cell membranes
[8] = biological target: T2, human delta opioid receptor; experiment: competition vs [3H]naltrindole, hDOR CHO cell membranes; reference DPDPE
[9] = biological target: T2, human delta opioid receptor; experiment: competition vs [3H]naltrindole, hDOR CHO cell membranes (summary table)
human mu opioid receptor [10] = biological target: T1, human mu opioid receptor; experiment: competition vs 0.25 nM [3H]DAMGO, hMOR CHO cell membranes; remark: listed apart in the source
[11] = biological target: T2, human delta opioid receptor; experiment: competition vs 0.2 nM [3H]naltrindole, hDOR CHO cell membranes; remark: listed apart in the source
[12] = biological target: human kappa opioid receptor (human) (UniProt P41145); experiment: inhibition of [3H]U69,593 binding at 10 uM peptide, hKOR CHO cell membranes; remark: listed apart in the source

T2 sequence (P41143 whole entry, stated change not applied): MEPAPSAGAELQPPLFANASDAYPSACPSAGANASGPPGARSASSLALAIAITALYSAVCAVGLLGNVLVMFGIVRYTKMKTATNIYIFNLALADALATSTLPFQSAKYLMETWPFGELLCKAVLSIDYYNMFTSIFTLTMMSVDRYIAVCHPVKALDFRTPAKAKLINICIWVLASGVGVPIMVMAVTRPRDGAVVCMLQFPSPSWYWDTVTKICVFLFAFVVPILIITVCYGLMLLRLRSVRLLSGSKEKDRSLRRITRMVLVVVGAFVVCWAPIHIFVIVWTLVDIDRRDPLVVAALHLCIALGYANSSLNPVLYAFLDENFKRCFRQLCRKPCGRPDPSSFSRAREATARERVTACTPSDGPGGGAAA
T1 sequence (P35372 whole entry): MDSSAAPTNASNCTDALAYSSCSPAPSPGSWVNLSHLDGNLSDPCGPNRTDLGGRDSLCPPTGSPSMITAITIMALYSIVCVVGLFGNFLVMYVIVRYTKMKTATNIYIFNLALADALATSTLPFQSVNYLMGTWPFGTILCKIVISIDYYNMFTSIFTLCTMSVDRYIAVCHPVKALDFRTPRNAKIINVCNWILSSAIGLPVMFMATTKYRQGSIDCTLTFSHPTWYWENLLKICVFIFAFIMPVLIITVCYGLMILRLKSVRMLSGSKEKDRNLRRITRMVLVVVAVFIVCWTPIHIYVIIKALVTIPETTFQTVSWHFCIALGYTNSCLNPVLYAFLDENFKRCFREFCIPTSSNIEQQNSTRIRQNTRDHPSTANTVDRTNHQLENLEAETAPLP
Chain of human kappa opioid receptor (human) (P41145 whole entry): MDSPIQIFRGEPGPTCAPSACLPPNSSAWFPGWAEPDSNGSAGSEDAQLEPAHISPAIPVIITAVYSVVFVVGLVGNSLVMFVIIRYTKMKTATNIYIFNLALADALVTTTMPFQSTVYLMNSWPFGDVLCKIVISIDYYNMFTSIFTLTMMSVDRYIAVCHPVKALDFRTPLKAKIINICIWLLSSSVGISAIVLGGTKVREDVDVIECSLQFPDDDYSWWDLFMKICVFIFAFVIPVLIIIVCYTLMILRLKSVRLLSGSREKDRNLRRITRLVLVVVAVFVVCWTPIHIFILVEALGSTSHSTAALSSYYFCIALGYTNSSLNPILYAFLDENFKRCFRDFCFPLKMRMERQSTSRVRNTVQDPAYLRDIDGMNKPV

11009 (H2N-YaFE-Nle-Nle-T-amide) (peptide)
EMax (%), agonist properties, [35S]GTPγS binding (human mu opioid receptor [1]): 42%
EC50 (nM), agonist properties, [35S]GTPγS binding [2]: 12 nM
EMax (%), agonist properties, [35S]GTPγS binding [2]: 67%

DPDPE (peptide)
Ki (human mu opioid receptor [3]): 180 nM

B1: 11008 = Deltorphin B4, H2N-YaFE-Nle-Nle-T(beta-D-Glc)-amide (peptide)
peptide: H-Y[dA]FE[Nle][Nle]T(βGlc)-NH2
SMILES: CCCC[C@H](NC(=O)[C@H](CCC(=O)O)NC(=O)[C@H](Cc1ccccc1)NC(=O)[C@@H](C)NC(=O)[C@@H](N)Cc1ccc(O)cc1)C(=O)N[C@@H](CCCC)C(=O)N[C@H](C(N)=O)[C@@H](C)O[C@@H]1O[C@H](CO)[C@@H](O)[C@H](O)[C@H]1O
EC50 (nM), agonist properties, [35S]GTPγS binding [2]: 12 nM
Selectivity Delta:Mu [4]: 79 fold (Ki mu over Ki delta)
IC50 (human mu opioid receptor [5]): 1500 nM
Ki (human mu opioid receptor [5]): 1100 nM
IC50 [6]: 42 nM
Ki [6]: 14 nM
Max Inhib at 10 uM (%) [7]: 2.9%
Ki (human mu opioid receptor [3]): 1100 nM
fold lower affinity than DPDPE [8]: ~3 fold
Ki [9]: 14 nM

B2: 11005 = Deltorphin B1, H2N-YaFE-Nva-Nva-S(beta-D-Glc)-amide (peptide)
peptide: H-Y[dA]FE[Nva][Nva]S(βGlc)-NH2
SMILES: CCC[C@H](NC(=O)[C@H](CCC)NC(=O)[C@H](CCC(=O)O)NC(=O)[C@H](Cc1ccccc1)NC(=O)[C@@H](C)NC(=O)[C@@H](N)Cc1ccc(O)cc1)C(=O)N[C@@H](CO[C@@H]1O[C@H](CO)[C@@H](O)[C@H](O)[C@H]1O)C(N)=O
notes: also called glycopeptide 11005
Selectivity Delta:Mu [4]: 36 fold (Ki mu over Ki delta)
IC50 (human mu opioid receptor [10]): 1000 nM
Ki (human mu opioid receptor [10]): 710 nM
IC50 [11]: 61 nM
Ki [11]: 20 nM
Max Inhib at 10 uM (%) [12]: 5.3%
Ki (human mu opioid receptor [3]): 710 nM
Ki [9]: 20 nM
